The source of these data is the DeepSol protein solubility set.

This series can be described thus: soluble on expression in E. coli; label from the status in PepcDB or PDB records.
As for “MTDIKMIALGGVREYGKNFYLVEINDSMFILDAGLKYPENEQLGVDLVIPNLDYVIENKGKVQGIFLSHGHADAIGALPYLLAEVSAPVFGSELTIELAKLFVKSNNSTKKFNNFHVVDSDTEIEFKDGLVSFFRTTHSIPESMGIVIGTDKGNIIYTGDFKFDQAAREGYQTDLLRLAEIGKEGVLALLSDSVNATSNDQIASESEVGEEMDSVISDADGRVIVAAVASNLVRIQQVFDSATAHGRRVVLTGTDAENIVRTALRLEKLMITDERLLIKPKDMSKFEDHELIILEAGRMGEPINSLQKMAAGRHRYVQIKEGDLVYIVTTPSTAKEAMVARVENLIYKAGGSVKLITQNLRVSGHANGRDLQLLMNLLKPQYLFPVQGEYRDLAAHAKLAEEVGIFPENIHILKRGDIMVLNDEGFLHEGGVPASDVMIDGNAIGDVGNIVLRDRKVLSEDGIFIVAITVSKKEKRIISKAKVNTRGFVYVKKSHDILRESAELVNTTVGNYLKKDTFDWGELKGNVRDDLSKFLFEQTKRRPAILPVVMEVR”, the “soluble on expression in E. coli” value is “not soluble”.

As to “MTDRLSILVPIRVLEGESVPEGVPELLAHAHVVLLGYHVIPEQTAPGQARMQFEDRATERLDEYQEMFEDAGATVERRLVFTHNGQKTIDRMIAEHDCMAVLVPNATGPVEDVLVPVRGAIGVDRLARVVASVFGEMDADVTLYHVADEDTTDDDIQTLLGGLADRLAEFGMDPSTIETRIDRDQNPLDAIVDVSDGFDTVVMGETDPSLATFVFGMPADQVANRFLGPVFVAQRERPSADEDE”, the “soluble on expression in E. coli” value was “not soluble”.

As to “MSSKVSPLAPTDVPAMPMIAGVRLATAAAGIRYKGRTDVLLVEMEKGTTVAGVFTTSKCASAPVEWCRDKLKGGSARALVVNSGNANAFTGKSGKQAATLTAQLAAKAIGCKPAEVFLASTGVIGEPLDATKFDGVLDALALDAGPDGWMDAAKAIMTTDTFPKVATATVKLGKAKVTINGMAKGAGMIAPDMATMLSFIFTDAPLSASCLQALLKAGVTDTFNAVTIDGDTSTSDTLLAFATGAAAENGAPKISRASDPRLKAFVKAFNAVLADLAEQVARDGEGARKLVEIIVEGAKTKVSARKIALSIANSPLVKTAIAGEDANWGRVVMAVGKAGEPADRDKLSISFNGIRVAKAGARDPSYNEKEVSAEMKKPVIQIKVALGLGKGRDRVLTCDLTKEYVAINGDYRSLEHHHHHH”, the “soluble on expression in E. coli” value is on record as “not soluble”.

With “MAKKRSKLEIIQAILEACKSGSPKTRIMYGANLSYALTGRYIKMLMDLEIIRQEGKQYMLTKKGEELLEDIRKFNEMRKNMDQLKEKINSVLSIRQ”, the “soluble on expression in E. coli” value is “soluble”.

For “MSASEFTLVPTTESDRTYIARLNFLTDVFGDEHADIGADFLEDYRFYVKQWDPTNGGLIAWSPKMIPAGGAWLVWGNNNDHGYGYVSEDIPEVAIAIEPRYRGKGVGSILLNKSLELARTLGAPGLSLSVDDGNPRAKKLYERLGFQHIRHSDAGFSIMCYRF”, the “soluble on expression in E. coli” value is reported as “not soluble”.

On to “MNQYSSFSPSSPSSSSRPSGGGGQSSHQTTPKSSGNPRQQQAQPRHRQRKAQSSSPASLAAFASSSVCSSPSARNVPLPPVEWLNQLQVPGQLENSSRPSSSISMTSSASSSTSSLSSSDAPMITMTPRRAAQKEMKPKTDVLGVRVCPLQLIAAIASA”, for which the “soluble on expression in E. coli” value is recorded as “not soluble”.

On to “MSEPVKLRAHTQAHCKDCSLAPLCLPLSLNTDDMDSLDQIVKRGRPLKKGEFLFRQGDTFESVYAVRSGALKTFNISDNGEEQLTGFHLPSELVGLSGMDAEAYPVSAQALETTSVCEIPFERLDELSVQLPQLRRQLMRVMSREIRDDQQMMLLLSKKTADERIATFLINLSARFRARGFSANQFRLSMSRSEIGNHLGLAVETVSRVFTRFQQNQLVSAEGKEIHILAPIELCALAGGAMQS”, for which the “soluble on expression in E. coli” value was “soluble”.

“MGAFLDKPKMEKHNAQGQGNGLRYGLSSMQGWRVEMEDAHTAVIGLPSGLESWSFFAVYDGHAGSQVAKYCCEHLLDHITNNQDFKGSAGAPSVENVKNGIRTGFLEIDEHMRVMSEKKHGADRSGSTAVGVLISPQHTYFINCGDSRGLLCRNRKVHFFTQDHKPSNPLEKERIQNAGGSVMIQRVNGSLAVSRALGDFDYKCVHGKGPTEQLVSPEPEVHDIERSEEDDQFIILACDGIWDVMGNEELCDFVRSRLEVTDDLEKVCNEVVDTCLYKGSRDNMSVILICFPNAPKVSPEAVKKEAELDKYLECRVEEIIKKQGEGVPDLVHVMRTLASENIPSLPPGGELASKRNVIEAVYNRLNPYKNDDTDSTSTDDMWLEHHHHHH”: the “soluble on expression in E. coli” value is on record as “soluble”.

In the case of “MSAQASRQKKSDQEQRAADQALLNAAIEDNAMEQDENFTVIDKLESSGISSGDISKLKEAGYYTYESLAFTTRRELRNVKGISDQKAEKIMKEAMKFVQMGFTTGAEVHVKRSQLVQIRTGSASLDRLLGGGIETGSITEVYGEYRTGKTQLCHSLAVLCQLPIDMGGGEGKCMYIDTNATFRPERIIAIAQRYNMDSAHVLENIAVARAYNSEHLMALIIRAGAMMSESRYAVVIVDCATAHFRNEYTGRGDLAERQMKLSAFLKCLAKLADEYGVAVIITNQVVAQVDGGASMFQADAKKPIGGHIIAHMSTTRLYLRKGKGENRVAKMVQSPNLPEAEATYSITNHGIEDARED”, the “soluble on expression in E. coli” value was “not soluble”.

“MGSDKIHHHHHHMKLVTISGPPSSGKTAVLAGVIRAMMASGLKVGALKYDCLATNDDDVFRAIGVPVQTGLSGNLCPDHYFVSNIEECLDWGIREGFDFLLSESAGLCNRCAPHIKGVLAVCVIDNLMGATTPKKIGPMLKYADIVVITKGDIVSQAEREVFAFQVRRANPRAKIMHVNGITGQGAGELASQFLLAPETTCLDGSRLRFSMPAALCSYCLGETRIGMEFQLGNVKKIKMSEEPAR”: the “soluble on expression in E. coli” value was “not soluble”.

As to “MGSDKIHHHHHHMYLIRKKYITSLENILKKEGVIVDALSNDATIRYRSEEIGDEFTSVYNIQKLLNIAYASQGKESFGLLSYEYFHPGDYDIVNYIMMSSDNLLHALECLCRFSRLLYSGCQLTLDKKNTNTYCIGFTYLYPQDKNKEITRQFHELTVASLLAYCQWLTAANFTHFSSMEFSYPQPYGIRKYETLFACPMTFGTHRNCVYLNAEILLMPLVTSNASLFKLHEKHATCLIDILFNKTIKSRVRDSINKKLETGSCNIHSVASDLFMTPRTLQRRLEEEGAYFKDILEDVKMNLAEYYLIYSQYSLSQVAELVGYKDLSSFHRACLRWFRSSPGFFRERGCKKACLPMK”, the “soluble on expression in E. coli” value is “not soluble”.

Take “MKTPNAQEAEGQQTRAAAGRATGSANMTKKKVSQKKQRGRPSSQPRRNIVGCRISHGWKEGDEPITQWKGTVLDQVPINPSLYLVKYDGIDCVYGLELHRDERVLSLKILSDRVASSHISDANLANTIIGKAVEHMFEGEHGSKDEWRGMVLAQAPIMKAWFYITYEKDPVLYMYQLLDDYKEGDLRIMPESSESPPTEREPGGVVDGLIGKHVEYTKEDGSKRIGMVIHQVEAKPSVYFIKFDDDFHIYVYDLVKKS”: the “soluble on expression in E. coli” value was “soluble”.

Consider “MGSDKIHHHHHHMLPMADQIQTLQEQVLQARSNGQKLNIVGGGTKSFMGRQGCAEAGTLSLAEHTGVVEYHPVELVLTVRAGTPLKEIEAVLAEQGQCLHFEPPHFGDASTIGGTLACNLSGPARPWAGSVRDQVLGIRLLNGKGEHLRFGGQVMKNVAGYDVSRLQAGAMGTLGVITEISLKVMPKPAATTTLVREMTMDEVVEYMNRRAGEPKPITGACWVDGKVYLRLAGAKSAVEATAEQWGGQVLADGEQFWRQVQDMQHPFFDDPELPLWRFSVDSTAKTPELDGPWMIDWAGSQRWYRGQASLDQLEPLARAAGGQVSLFRGGDRTGEVMHGQPQALKTIQQRVKKSFDPDAIFNPGRLYSWL”, for which the “soluble on expression in E. coli” value is “not soluble”.

Consider “DNYFRIHVKKLPEENKDAQGLWTWDDVEKPSENWPNGALSFKDAKKDDYGYYLDVKLKGEQAKKISFLINNTAGKNLTGDKSVEKLVPKMNEAWLDQDYKVFSYEPQPAGTVRVNYYRTDGNYDKKSLWYWGDVKNPSSAQWPDGTDFTATGKYGRYIDIPLNEAAREFGFLLLDESKGDVKIRKENYKFTDLKNHSQIFLKDDDESIYTNPYYVHD”, for which the “soluble on expression in E. coli” value is recorded as “soluble”.

Consider “MGSDKIHHHHHHMAGIRAKQKEKTRQALINAAMNQLSAENGFSSLSLREVAREAGIAPTSFYRHFRDMDELGLTLVDECGLALRQLLRQARQRIESGGSIIRVSIETFMQFVANNTATFRLLLQERSGRSRSFRLAVVREIDHFKAELEDYLVNEQSFSRELAELQSDTIAKIVFSAGADCFDVDEEEREIITEKTILQVRLVARGAEATRRLLKRES”, for which the “soluble on expression in E. coli” value was “not soluble”.

Turning to “MEDSCVLRGVMINKDVTHPRMRRYIKNPRIVLLDSSLEYKKGESQTDIEITREEDFTRILQMEEEYIHQLCEDIIQLKPDVVITEKGISDLAQHYLMRANVTAIRRVRKTDNNRIARACGARIVSRPEELREDDVGTGAGLLEIKKIGDEYFTFITDCKDPKACTILLRGASHHHHHH”, the “soluble on expression in E. coli” value is listed as “soluble”.

“MKAKTLIDAYEAFCPLDLSMEGDVKGLQMGSLDKDIRKVMITLDIRESTVAEAIKNEVDLIITKHAPIFKPLKDLVSSPQRDILLDLVKHDISVYVSHTNIDIVPGGLNDWFCDLLEIKEATYLSETKEGFGIGRIGTVKEQALEELASKVKRVFDLDTVRLIRYDKENPLISKIAICGGSGGEFYQDAVQKGADVYITGDIYYHTAQEMLTEGLFAVDPGHHIEVLFTEKLKEKLQGWKEENGWDVSIISSKASTNPFSHL”: the “soluble on expression in E. coli” value is given as “not soluble”.

As to “MSLANIKEIARLANVSVSTVSRVLNHHPYVSEEKRKLVHQVMKELDYTPNRTAIDLIRGKTHTVGVILPYSDHPCFDKIVNGITKAAFQHEYATTLLPTNYNPDIEIKYLELLRTKKIDGLIITSRANHWDSILAYQEYGPVIACEDTGDIDVPCAFNDRKTAYAESFRYLKSRGHENIAFTCVREADRSPSTADKAAAYKAVCGRLEDRHMLSGCNDMNDGELAAEHFYMSGRVPTAIYANSDEVAAGIHLFAKKNNWDVEIIGEGNTSISRVLGFPSLDLNLEQLGIAAFSLFLQDEPADIKIQHKFKKKAEGHHHHHH”, the “soluble on expression in E. coli” value is on record as “soluble”.

For “PIDWNPQRIAVSGVSGVGKTTLCKQIAALSGFPRVELDSLYHGENWVPRETFVAEVQDFIKGPQWVMELQYRQVRPLIVERADTVLWLDYSTPRQMFRLIKRTIPRSLFKTKL”, the “soluble on expression in E. coli” value was “not soluble”.

In the case of “MAHHHHHHMSRCGRKLDMSSGYWLPRRLLLVRHGESEANVDRALYSKVPDWKIPLTARGREQAFECGRRLRKIIKNEKLYVYYSPYTRTRQTLTEVRKSLLPSQVQGEREDERLREQEIGNFQPLDKMDEMWAERSEFGRSYYRFPDGESSVDVGDRVSKFFDSLFRERVELNYLSARKQMITGSSNDVGPASFTVPDDDDHNVVIISHGLLIRLFVGRWYSAPMEVFETMKNPPNCGIVVLERREAGRLVMTDTSKKLFGSDPLLEMMKFDGKDNVQLFRHLFAEGGYSFSAGEGTDR”, the “soluble on expression in E. coli” value was “soluble”.

With “RKLTMNSNYKREDFVNETEVRWCPGCGDYAILAALQRVLPELGLPPEQHVFVSGIGCAGRLPYYMNTYGFHTIHGRATAVATGLKAMREDLCVWVITGDGDALSIGGNHLLHILRRNVNVNILLFNNQVYGLTKGQFSPTSQKGQVTKTSPKGVTSEPINPIMIALASGASFVARAVDKDPVHLASVLKKAYEHKGCSFVEIYQDCNIFNHGAFDDFAVKNNRAENTIILEDGQPLVFGAQKEKALQLDDEQFVQISIDEKTLYKHDEKNLISAMRLARLTFPDYPVPLGVYYQKDRERFTLSQEVKKRPEDLP”, the “soluble on expression in E. coli” value was “not soluble”.

Consider “MSLKITWLGHAAFLLEGSMKVLIDPFLTGNPNAPVKPEEVKADYILVTHGHGDHLGDAVEIAKRNNAPIICIHELSRILSRYDVETMGMNMGGTARTGSIAVTMVPAWHSADLEDEQGNIISAGLPAGFIVSMDGVRVYHTGDTDVFLDMQLIGELHRPDVMLLPIGDYYTMGIAGAVKALELVKPKVAIPMHYNTFPLVEKDPEDFRKAVKAKGLDVEVVILKPGESYEFNKEGGSHHHHHH”, for which the “soluble on expression in E. coli” value is recorded as “soluble”.
